The values below come from patent US20250197485A1, “Anti-ED-A Antibodies for the Treatment of Pulmonary Hypertension” (Universitätsklinikum Jena, priority 2022, published 2025).

Assay [1] relates to MCT-induced PH. Put plainly: Histological evaluation of lung tissue damage (sum-score) in mouse model of MCT-induced PH. Format: in vivo, C57BL/6 mice. The source says:
PH was induced in C57BL/6 mice (bodyweight: 25-30 g). The animals were obtained from ZET facility (Zentale Experimentelle Tierhaltung) of the University Hospital Jena (UKJ, Jena, Germany). Prior to PH induction, mice were allowed to acclimatize for at least 7 days with ad libitum access to food and water as well as controlled light/dark cycles. 41 animals were investigated divided into the following five experimental groups: • 1) sham induced controls (n=7) • 2) MCT induced PH (n=12) • 3) MCT induced PH+MAC (n=6) • 4) MCT induced PH+F8 IgG (n=8) • 5) MCT induced PH+KSF IgG (n=8) For PH induction, the Monocrotaline (MCT, Carl Roth, Germany) method was used. The sham induced controls were injected with 30 μl NaCl not containing MCT at day 1 (single dose; intraperitoneally, i.p.). […] The other 4 experimental groups were injected with MCT to induce PH (single dose; intraperitoneally, i.p.; 60 mg/kg body weight; volume 30 μl). Animals in the MCT induced PH+MAC group received the drug (Macitentan, Actelion Pharmaceuticals Ltd.) from day 14 to day 28 (once daily; per os; 15 mg/kg body weight). Animals in the MCT induced PH+F8 IgG group received F8 IgG 3 times on day 14, 16 and 18 (intravenously, i.v.; 195 μg/injection; volume 200 μl). Similarly, animals in the MCT induced PH+KSF IgG group received KSF IgG 3 times on day 14, 16 and 18 (intravenously, i.v.; 195 μg/injection; volume 120 μl). Microscopic evaluation to assess histopathological lung tissue damage was performed using H&E as well as Sirius Red stained lung tissue sections according to a defined sum-score (between 0 and 12; maximum score value=highest level of tissue damage) integrating certain histological alterations frequently occurring in PH: percentage of atelectasis area, percentage of emphysema area, degree of media hypertrophy of peribronchial arteries, presence of perivascular cellular edema of peribronchial arteries, and degree of media hypertrophy of small arteries. Statistical analyses were performed using IBM SPSS statistical software, version 28.0 (IBM SPSS Statistics for Windows. Armonk, NY, USA). Data are expressed as mean±standard deviation. Kruskal-Wallis and Mann-Whitney-U test were used to test for significant differences between the different groups. A p-value<0.05 as statistically significant.

Assay [2] deals with MCT-induced PH. Put plainly: Right heart catheterization (RVPsys) in mouse model of MCT-induced PH. Format: in vivo, C57BL/6 mice. The source says: PH was induced in C57BL/6 mice (bodyweight: 25-30 g). The animals were obtained from ZET facility (Zentale Experimentelle Tierhaltung) of the University Hospital Jena (UKJ, Jena, Germany). Prior to PH induction, mice were allowed to acclimatize for at least 7 days with ad libitum access to food and water as well as controlled light/dark cycles. 41 animals were investigated divided into the following five experimental groups: • 1) sham induced controls (n=7) • 2) MCT induced PH (n=12) • 3) MCT induced PH+MAC (n=6) • 4) MCT induced PH+F8 IgG (n=8) • 5) MCT induced PH+KSF IgG (n=8)
For PH induction, the Monocrotaline (MCT, Carl Roth, Germany) method was used.
The sham induced controls were injected with 30 μl NaCl not containing MCT at day 1 (single dose; intraperitoneally, i.p.). […] The other 4 experimental groups were injected with MCT to induce PH (single dose; intraperitoneally, i.p.; 60 mg/kg body weight; volume 30 μl). Animals in the MCT induced PH+MAC group received the drug (Macitentan, Actelion Pharmaceuticals Ltd.) from day 14 to day 28 (once daily; per os; 15 mg/kg body weight). Animals in the MCT induced PH+F8 IgG group received F8 IgG 3 times on day 14, 16 and 18 (intravenously, i.v.; 195 μg/injection; volume 200 μl). Similarly, animals in the MCT induced PH+KSF IgG group received KSF IgG 3 times on day 14, 16 and 18 (intravenously, i.v.; 195 μg/injection; volume 120 μl).
On day 28 after MCT injection, mice of all experimental groups were deeply anesthetized with a single dose of 100 mg/kg body weight ketamine and 10 mg/kg body weight Xylazin in approximately 60 μl each administered i.p.
Right heart catheterization using a 1.4 F micro conductance pressure-volume catheter (Model SPR-839; Millar Instruments Inc; PowerLab system, ADInstruments Ltd., Oxford, UK) was performed via the right vena jugularis interna to measure the systolic right ventricular pressure and thereby verify the success of the experimental setting. Mice were then sacrificed in deep anesthesia and analgesia to carry out cardiac blood collection after thoracotomy and to harvest the organs.
Statistical analyses were performed using IBM SPSS statistical software, version 28.0 (IBM SPSS Statistics for Windows. Armonk, NY, USA). Data are expressed as mean±standard deviation. Kruskal-Wallis and Mann-Whitney-U test were used to test for significant differences between the different groups. A p-value<0.05 as statistically significant.

[3] abbreviates: in contrast to treatment with KSF IgG.

B1: F8 IgG: Chimaeric anti-ED-A antibody: human F8 VH/VL fused to murine IgG2a constant regions; heavy chain SEQ ID NO: 11, light chain SEQ ID NO: 12 (antibody)
heavy: EVQLLESGGGLVQPGGSLRLSCAASGFTFSLFTMSWVRQAPGKGLEWVSAISGSGGSTYYADSVKGRFTISRDNSKNTLYLQMNSLRAEDTAVYYCAKSTHLYLFDYWGQGTLVTVSSAKTTAPSVYPLAPVCGDTTGSSVTLGCLVKGYFPEPVTLTWNSGSLSSGVHTFPAVLQSDLYTLSSSVTVTSSTWPSQSITCNVAHPASSTKVDKKIEPRGPTIKPCPPCKCPAPNLLGGPSVFIFPPKIKDVLMISLSPIVTCVVVDVSEDDPDVQISWFVNNVEVHTAQTQTHREDYNSTLRVVSALPIQHQDWMSGKEFKCKVNNKDLPAPIERTISKPKGSVRAPQVYVLPPPEEEMTKKQVTLTCMVTDFMPEDIYVEWTNNGKTELNYKNTEPVLDSDGSYFMYSKLRVEKKNWVERNSYSCSVVHEGLHNHHTTKSFSRTPGK
light: EIVLTQSPGTLSLSPGERATLSCRASQSVSMPFLAWYQQKPGQAPRLLIYGASSRATGIPDRFSGSGSGTDFTLTISRLEPEDFAVYYCQQMRGRPPTFGQGTKVEIKRTDAAPTVSIFPPSSEQLTSGGASVVCFLNNFYPKDINVKWKIDGSERQNGVLNSWTDQDSKDSTYSMSSTLTLTKDEYERHNSYTCEATHKTSTSPIVKSFNRNEC
As for B1, the “histopathological lung tissue damage (sum-score 0 to 12) compared to the MCT-induced PH group without treatment” value with MCT-induced PH [1] (MAC p=0.020, F8 IgG p=0.005, KSF IgG p=0.907) was “significantly reduced”. Besides, the “histopathological lung tissue damage (sum-score 0 to 12) compared to negative controls” value in the assay with MCT-induced PH [1] (all groups p<0.05, F8 IgG p=0.002) is “significantly increased”. Moreover, the “lung tissue damage at the histopathological level” value with MCT-induced PH [1] (setting [3]) is given as “attenuation”. The “attenuation in RVPsys compared to the MCT-induced PH group without treatment (positive control)” value in the assay with MCT-induced PH [2] (day 28, F8 IgG 195 μg i.v. day 14, 16, 18 (p=0.010), MAC 15 mg/kg per os once daily day 14-28 (n.s.)) is on record as “significant attenuation”. In the assay on MCT-induced PH [2] (day 28, p=0.003), the “RVPsys compared to the group treated with the negative control antibody KSF IgG” value is recorded as “significantly reduced”. Also, the “pressure values in the right ventricle (RVPsys)” value with MCT-induced PH [2] (setting [3]) is “significant reduction”.
